This experiment deals with GST-tagged Polo-box domain (PBD) of Plk1 (UniProt P53350). Nature of the experiment: GST pull-down with anti-GFP immunoblot, band quantification. Conditions: mitotic lysates of U2OS cell lines; immobilized GST-Plk1-PBD; input levels set to 100%; parent: est. 56; read off a plot. Background: Immunoblotting shows a protein as a band on a membrane.
Sequence of UniProt P53350 (P53350 326-603): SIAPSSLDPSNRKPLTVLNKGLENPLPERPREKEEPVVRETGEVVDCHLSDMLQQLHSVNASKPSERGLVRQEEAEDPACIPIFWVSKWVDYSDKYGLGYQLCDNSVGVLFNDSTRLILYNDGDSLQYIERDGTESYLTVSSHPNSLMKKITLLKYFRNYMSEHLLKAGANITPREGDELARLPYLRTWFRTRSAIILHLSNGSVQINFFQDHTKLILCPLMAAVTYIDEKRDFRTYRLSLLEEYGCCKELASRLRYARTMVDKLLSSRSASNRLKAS

As for “GFP-tagged murine 53BP1, wild type (from UniProt P70399) S376A”, the response was 10 % of input.

Regarding “GFP-tagged murine 53BP1, wild type (from UniProt P70399) S1620A”, the response was 78 % of input.

Values taken from article PMC2811157.
